Reference: PMC9507130

Target: Vrl1-Envy (S. cerevisiae)
Test: co-IP; yeast spheroplast lysates (0.1% Tween-20, 50 mM HEPES, 1 mM EDTA, 50 mM NaCl, pH 7.4); rabbit anti-GFP or anti-HA, Protein A Sepharose, 4 °C; western blot; Vrl1 over-expressed in some panels; vin1Δ strain for Vps5-3HA with Vrl1-Envy

B1: Vin1-3HA (natural protein)
chain: MENDKASHASPSIGVNEFVVQGEISIDDSERSVKSVSVSISDDEDSKTDVQDNMATPSTRSKFQTDLAIDNRLLEKDPKYKKLFTEKRRRRRPESCINLMTKGKGTGQKDNINDQIFSLRILPGSDLNSLKDSLWIIKISTQPDVEKTIARAFSDFYWLYHQLQNNHWGKTIPPPTRSNILVEKDEFAINHLFMIRNNEKYDPIFNFKPEYIISLQLMAMIKHIFNDKVLRLDSNFIDFISWDDDLPESLQIVVDDSTFTGDKILMTSSQFRELKEFHKQSKKVESITNSHASLIPVTELTEIYISPTKLFSRKDYQRLFQPQSTDNTFNNNDPLIQEWIPKSKTLFTSLSFGSSAPTYQEASTEIQACHDWVSISKEQWKQLLYHVLQYIVDEAVKVNSVINEFTECLKQISLDEVIRANSELFLKFSKLNESFLKKFKGASRQDILKLIILFDENVRFCESFESILNQRLKLGKILSIIEVDLDKKKNFLDKLSPGNNNSNNEDLKIRTAEDEYRIVLKRYNRVKQSWEKIMEDILNERKEFEKREAAEVNSCLKSIRDLNMDEKKHYLQLWQDFVPDEHISQ
  percent recovery of Vin1 in the co-IP: 64%
